What was measured:
Type in all cases: cell-based, human
[1] = tested on: PBMC cells obtained from mite allergic patients and non-allergics; assay: Ex vivo stimulation of PBMC: cytokine production (IFN-gamma, IL-9, IL-10, IL-17, IL-31)
Summary of the method: (§1)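 Freshly isolated PBMC (5×10^6/ml) from mite-allergic patients or non-allergics cultured 5 days with test protein up to 10 ug/ml; IFN-gamma, IL-9, IL-10, IL-17, IL-31 in supernatants by multiplex immunoassay. T cell lines, raised 3 weeks on HDM extract, tested at 0.5 or 2 ug/ml protein in 72 h proliferation assay.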

[2] = tested on: basophils in whole blood from HDM allergic donors; assay: Basophil Activation Test (BAT); conditions: blood from HDM allergic individuals (n=14)
Summary of the method: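 Basophil activation was read by flow cytometry as increased surface activation markers. The stimulus was a 1 h exposure of blood from 14 HDM-allergic donors to test proteins or major mite allergens at graded concentrations (e.g. 1–1000 ng/ml).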

[3] = tested on: T cell lines obtained from HDM allergic individuals and non-allergics; assay: In vitro T cell proliferation test in T cell lines (Example 3); conditions: 0.5 or 2 ug/ml, 72 h; for % responders of in-vitro T cell proliferation test, Allergic: T cell lines from HDM allergic individuals (n=30); for % responders of in-vitro T cell proliferation test, Non-allergics: T cell lines from non-allergics (n=8)
Summary of the method: as §1

B1: A019: house dust mite protein; SEQ ID NO: 1 (Der f), 4 (Der p), 315 (Blo t) (protein)
chain: QVYCNGAAIVSAARSQIGVPYSWGGGGIHGKSRGIGEGANTVGFDCSGLAQYSVYQGTHKVLARVASGQYSDPKCHHVAYGSHQPGDLVFFGNPIHHVGIVSAHGRMINAPHTGTNVREENIWSDHIANVARCW
% HDM allergic individuals with cytokine production in ex-vivo T cell assay IL-5 [1]: 38% | % HDM allergic individuals with cytokine production in ex-vivo T cell assay IL-9 [1]: 56% | % HDM allergic individuals with cytokine production in ex-vivo T cell assay IL-10 [1]: 75% | % HDM allergic individuals with cytokine production in ex-vivo T cell assay IL-13 [1]: 56% | % HDM allergic individuals with cytokine production in ex-vivo T cell assay IL-17 [1]: 100% | % HDM allergic individuals with cytokine production in ex-vivo T cell assay IL-31 [1]: 13% | % HDM allergic individuals with cytokine production in ex-vivo T cell assay INF-g [1]: 50% | % non-allergic individuals with cytokine production in ex-vivo T cell assay IL-5 [1]: 0% | % non-allergic individuals with cytokine production in ex-vivo T cell assay IL-9 [1]: 0% | % non-allergic individuals with cytokine production in ex-vivo T cell assay IL-10 [1]: 100% | % non-allergic individuals with cytokine production in ex-vivo T cell assay IL-13 [1]: 0% | % non-allergic individuals with cytokine production in ex-vivo T cell assay IL-17 [1]: 100% | % non-allergic individuals with cytokine production in ex-vivo T cell assay IL-31 [1]: 17% | % non-allergic individuals with cytokine production in ex-vivo T cell assay INF-g [1]: 100% | # of individuals of 14 with positive BAT test ([2]; 1 ng/ml): 2 | # of individuals of 14 with positive BAT test ([2]; 10 ng/ml): 2 | # of individuals of 14 with positive BAT test ([2]; 100 ng/ml): 2 | # of individuals of 14 with positive BAT test ([2]; 1000 ng/ml): 4 | % responders of in-vitro T cell proliferation test, Allergic [3]: 39% | % responders of in-vitro T cell proliferation test, Non-allergics [3]: 13%

B2: A023: house dust mite protein; SEQ ID NO: 23 (Der f), 24 (Der p) (protein)
chain: DPVQQRPTLRGVTVRVGPFVKENNGKFEGFIPDLVQAISEKVGFDYTLYLSPDGRYGNVISDGNVTGMIGEVYNKKADFAAADLTMTEARENYITFTEPFMINQLAALIRREDAEGLNTLEDLAKAQETFPKRKRIVLGTLRNGATNYFLSKSDDPLAKKIYEQIKADDQSVVKSISEGVERVDKQGGYAFIMESASAEHEIANNCKLTMLLDWRNLFPRKYAFALPKDSPYLEHFNNAIKQLNSEGKIAELRRKYWANNCAENKTKDDKN
% HDM allergic individuals with cytokine production in ex-vivo T cell assay IL-5 [1]: 13% | % HDM allergic individuals with cytokine production in ex-vivo T cell assay IL-9 [1]: 13% | % HDM allergic individuals with cytokine production in ex-vivo T cell assay IL-10 [1]: 6% | % HDM allergic individuals with cytokine production in ex-vivo T cell assay IL-13 [1]: 13% | % HDM allergic individuals with cytokine production in ex-vivo T cell assay IL-17 [1]: 0% | % HDM allergic individuals with cytokine production in ex-vivo T cell assay IL-31 [1]: 0% | % HDM allergic individuals with cytokine production in ex-vivo T cell assay INF-g [1]: 0% | % non-allergic individuals with cytokine production in ex-vivo T cell assay IL-5 [1]: 0% | % non-allergic individuals with cytokine production in ex-vivo T cell assay IL-9 [1]: 0% | % non-allergic individuals with cytokine production in ex-vivo T cell assay IL-10 [1]: 0% | % non-allergic individuals with cytokine production in ex-vivo T cell assay IL-13 [1]: 0% | % non-allergic individuals with cytokine production in ex-vivo T cell assay IL-17 [1]: 0% | % non-allergic individuals with cytokine production in ex-vivo T cell assay IL-31 [1]: 0% | % non-allergic individuals with cytokine production in ex-vivo T cell assay INF-g [1]: 0% | # of individuals of 14 with positive BAT test ([2]; 1 ng/ml): 1 | # of individuals of 14 with positive BAT test ([2]; 10 ng/ml): 1 | # of individuals of 14 with positive BAT test ([2]; 100 ng/ml): 1 | # of individuals of 14 with positive BAT test ([2]; 1000 ng/ml): 1 | % responders of in-vitro T cell proliferation test, Allergic [3]: 21% | % responders of in-vitro T cell proliferation test, Non-allergics [3]: 0%

B3: A022: house dust mite protein; SEQ ID NO: 19 (Der f), 20 (Der p), 317 (Blo t) (protein)
chain: NWQMVWQDEFNGGHLDQNHWEFETGGGGWGNNELEFYTANRSQNVRVENGHLVIDVRVESYGGRDFTSGRIHSKQAWAYGKFEARARLPSGHHLWPAIWMFPRDSKYGPWAASGEIDIMEYRGDVHDKIEGTIHYGGQWPNNIYTGSGPHHFNVDFSKDFHNFAVEWDTKEIRWYMDGNKYFSVNIDRNMWSGKGNNPYNKNGQPFDQPFRWILNVAVGGNFFGPGPYVTPDQARHWQKHTMEIDYVRVYQWR
% HDM allergic individuals with cytokine production in ex-vivo T cell assay IL-5 [1]: 31% | % HDM allergic individuals with cytokine production in ex-vivo T cell assay IL-9 [1]: 6% | % HDM allergic individuals with cytokine production in ex-vivo T cell assay IL-10 [1]: 6% | % HDM allergic individuals with cytokine production in ex-vivo T cell assay IL-13 [1]: 13% | % HDM allergic individuals with cytokine production in ex-vivo T cell assay IL-17 [1]: 0% | % HDM allergic individuals with cytokine production in ex-vivo T cell assay IL-31 [1]: 0% | % HDM allergic individuals with cytokine production in ex-vivo T cell assay INF-g [1]: 0% | % non-allergic individuals with cytokine production in ex-vivo T cell assay IL-5 [1]: 0% | % non-allergic individuals with cytokine production in ex-vivo T cell assay IL-9 [1]: 0% | % non-allergic individuals with cytokine production in ex-vivo T cell assay IL-10 [1]: 0% | % non-allergic individuals with cytokine production in ex-vivo T cell assay IL-13 [1]: 0% | % non-allergic individuals with cytokine production in ex-vivo T cell assay IL-17 [1]: 0% | % non-allergic individuals with cytokine production in ex-vivo T cell assay IL-31 [1]: 0% | % non-allergic individuals with cytokine production in ex-vivo T cell assay INF-g [1]: 17% | # of individuals of 14 with positive BAT test ([2]; 1 ng/ml): 0 | # of individuals of 14 with positive BAT test ([2]; 10 ng/ml): 0 | # of individuals of 14 with positive BAT test ([2]; 100 ng/ml): 3 | # of individuals of 14 with positive BAT test ([2]; 1000 ng/ml): 5 | % responders of in-vitro T cell proliferation test, Allergic [3]: 29% | % responders of in-vitro T cell proliferation test, Non-allergics [3]: 0%

B4: A020: house dust mite protein; SEQ ID NO: 15 (Der f), 16 (Der p); Blo t SEQ ID NO: 316 printed as A0019 (protein)
chain: MSKPIFYYHPFSGPCRTVSTVAKILNVDMEMKKLDLLTKEHLNPEFLKVNPFHKVPTFVDSDGFVVDESRVIAMYLVESRKPDSFLYPKNDLKKRIQIDRWLHYDINLSTTISAPMFCVFRGHQVQDYQVEQGKETLKTLDGVMQSFEGKFLTGADQFTLADIAMYFSLNTMEVYPKYFKFDDYPNLKSWYHRVAEALKQYDTEGTIPKAIETMKQFIQQRAAEAEKH
% HDM allergic individuals with cytokine production in ex-vivo T cell assay IL-5 [1]: 6% | % HDM allergic individuals with cytokine production in ex-vivo T cell assay IL-9 [1]: 0% | % HDM allergic individuals with cytokine production in ex-vivo T cell assay IL-10 [1]: 25% | % HDM allergic individuals with cytokine production in ex-vivo T cell assay IL-13 [1]: 6% | % HDM allergic individuals with cytokine production in ex-vivo T cell assay IL-17 [1]: 6% | % HDM allergic individuals with cytokine production in ex-vivo T cell assay IL-31 [1]: 0% | % HDM allergic individuals with cytokine production in ex-vivo T cell assay INF-g [1]: 0% | % non-allergic individuals with cytokine production in ex-vivo T cell assay IL-5 [1]: 0% | % non-allergic individuals with cytokine production in ex-vivo T cell assay IL-9 [1]: 0% | % non-allergic individuals with cytokine production in ex-vivo T cell assay IL-10 [1]: 0% | % non-allergic individuals with cytokine production in ex-vivo T cell assay IL-13 [1]: 0% | % non-allergic individuals with cytokine production in ex-vivo T cell assay IL-17 [1]: 0% | % non-allergic individuals with cytokine production in ex-vivo T cell assay IL-31 [1]: 0% | % non-allergic individuals with cytokine production in ex-vivo T cell assay INF-g [1]: 17% | # of individuals of 14 with positive BAT test ([2]; 1 ng/ml): 0 | # of individuals of 14 with positive BAT test ([2]; 10 ng/ml): 1 | # of individuals of 14 with positive BAT test ([2]; 100 ng/ml): 1 | # of individuals of 14 with positive BAT test ([2]; 1000 ng/ml): 1 | % responders of in-vitro T cell proliferation test, Allergic [3]: 18% | % responders of in-vitro T cell proliferation test, Non-allergics [3]: 25%
